In publication PMC8163975 (The Journal of Biological Chemistry, 2021):

Columns and labels:
HRAS, mGppNHp-bound = target: T1, HRAS, mGppNHp-bound (human, UniProt P01112-1 1-189); assay: fluorescence polarisation; increasing concentrations of the RA/RB domain as MBP fusion protein (0.002-300 µM; or MBP alone) titrated to mGppNHp-bound RAS protein (1 µM); 30 mM Tris-HCl pH 7.4, 100 mM NaCl, 5 mM MgCl2, 3 mM DTT; Kd from a quadratic ligand-binding equation; details: both partners purified
T1 construct: human HRAS; Loaded with mGppNHp, a fluorescent non-hydrolysable GTP analogue; That the RAS proteins were the pGEX (GST) constructs is surmised; also called HRAS1; p21HRAS

RIT1, mGppNHp-bound = target: T2, RIT1, mGppNHp-bound (human, UniProt Q92963 1-219); assay: as above; details: both partners purified
T2 construct: human RIT1; Loaded with mGppNHp
T2 sequence (Q92963 whole entry): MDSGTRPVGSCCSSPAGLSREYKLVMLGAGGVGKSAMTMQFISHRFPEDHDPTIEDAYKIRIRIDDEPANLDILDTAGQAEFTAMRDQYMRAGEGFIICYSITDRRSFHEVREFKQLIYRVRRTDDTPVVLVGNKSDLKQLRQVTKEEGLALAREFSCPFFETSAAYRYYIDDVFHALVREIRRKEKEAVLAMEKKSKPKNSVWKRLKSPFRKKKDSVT

Kd (HRAS, mGppNHp-bound): 40 µM
Kd (RIT1, mGppNHp-bound): 150 µM
B1: RASSF9-to-5 variant of the RASSF9 RA domain, MBP fusion protein (domain or fragment, human, UniProt O75901 25-119, looked up)
chain: EEKEIVVWVCQEEKLDCIKTLHTTSADVIQALLEEHEATFGEKRFLLGKPSDYCIIEKWRGSERVLPPLTRILKLWKAWGDEQPNMQFVLVKADA
notes: RASSF9 RA domain (aa 25-119 of O75901, the limits of the wild-type construct) with five hotspot residues changed to those of RASSF5; source: gene synthesis (BioCat) in pMal-c5X-His vector; E. coli, purified
